In patent publication US20190076400A1 (PROTAGONIST THERAPEUTICS, published 2019):
Read-outs that look alike come from different tables or passages of the source. Square brackets hold non-standard residues; d marks the D form. Ends that are not written are not given here. Dmt = Cc1cc(O)cc(C)c1C[C@H](N)C(=O)O; NMeI = CC[C@H](C)[C@H](NC)C(=O)O; β3hF = N[C@H](CC(=O)O)Cc1ccccc1; NMeA = CN[C@@H](C)C(=O)O; Sar = CNCC(=O)O

B1: [DMT-((D)Ala)-Gly-(β-homoPhe)-(Sar)]2-Lys (peptide)
peptide: H-[Dmt][dA]G[β3hF][Sar]K
modifications: also: homodimer: two monomers joined at X5 through a lysine linker (Dimer A)
B2: H-DMT-(D)Glu-G-bhF-N(Me)-Ala-OH (peptide)
peptide: H-[Dmt][dE]G[β3hF][NMeA]-OH
SMILES: Cc1cc(O)cc(C)c1C[C@H](N)C(=O)N[C@H](CCC(=O)O)C(=O)NCC(=O)N[C@H](CC(=O)N(C)[C@@H](C)C(=O)O)Cc1ccccc1
B3: [DMT-((D)Ala)-Gly-(β-homoPhe)-(NMe-Ile)]2-Lys (peptide)
peptide: H-[Dmt][dA]G[β3hF][NMeI]K
modifications: also: homodimer: two monomers joined at X5 through a lysine linker (Dimer A)
B4: H-DMT-(D)Glu-G-bhF-N(Me)-Ile-OH (peptide)
peptide: H-[Dmt][dE]G[β3hF][NMeI]-OH
SMILES: CC[C@H](C)[C@@H](C(=O)O)N(C)C(=O)C[C@H](Cc1ccccc1)NC(=O)CNC(=O)[C@@H](CCC(=O)O)NC(=O)[C@@H](N)Cc1c(C)cc(O)cc1C
B5: [DMT-((D)Ala)-Gly-(β-homoPhe)-(Sar)]2-(D-Lys) (peptide)
peptide: H-[Dmt][dA]G[β3hF][Sar][dK]
modifications: also: homodimer: two monomers joined at X5 through a D-lysine linker (Dimer A)
B6: [DMT-((D)Ala)-Gly-(β-homoPhe)-(Sar)-(D-Lys)]2-DIG (peptide)
peptide: H-[Dmt][dA]G[β3hF][Sar][dK]
modifications: not fully specified (C-terminus); printed as [DMT-((D)Ala)-Gly-(β-homoPhe)-(Sar)-(D-Lys)]2-DIG; also: homodimer: the two D-Lys joined through DIG linker (Dimer C)
B7: [DMT-((D)Ala)-Gly-(β-homoPhe)-(NMe-Ala)]2-Lys (peptide)
peptide: H-[Dmt][dA]G[β3hF][NMeA]K
modifications: also: homodimer: two monomers joined at X5 through a lysine linker (Dimer A)
B8: H-DMT-(D)Glu-G-bhF-Sar-NH2 (peptide)
peptide: H-[Dmt][dE]G[β3hF][Sar]-NH2
SMILES: Cc1cc(O)cc(C)c1C[C@H](N)C(=O)N[C@H](CCC(=O)O)C(=O)NCC(=O)N[C@H](CC(=O)N(C)CC(N)=O)Cc1ccccc1
B9: H-DMT-a-Ala-bhF-Sar-NH2 (peptide)
peptide: H-[Dmt][dA]A[β3hF][Sar]-NH2
SMILES: Cc1cc(O)cc(C)c1C[C@H](N)C(=O)N[C@H](C)C(=O)N[C@@H](C)C(=O)N[C@H](CC(=O)N(C)CC(N)=O)Cc1ccccc1

What was measured:
Assay in all cases: cell-based or functional assay
[1] = target: T1, µ-opioid receptor (MOR), Human-ORPM1 (human, UniProt P35372 1-400)
T1 sequence (P35372 whole entry): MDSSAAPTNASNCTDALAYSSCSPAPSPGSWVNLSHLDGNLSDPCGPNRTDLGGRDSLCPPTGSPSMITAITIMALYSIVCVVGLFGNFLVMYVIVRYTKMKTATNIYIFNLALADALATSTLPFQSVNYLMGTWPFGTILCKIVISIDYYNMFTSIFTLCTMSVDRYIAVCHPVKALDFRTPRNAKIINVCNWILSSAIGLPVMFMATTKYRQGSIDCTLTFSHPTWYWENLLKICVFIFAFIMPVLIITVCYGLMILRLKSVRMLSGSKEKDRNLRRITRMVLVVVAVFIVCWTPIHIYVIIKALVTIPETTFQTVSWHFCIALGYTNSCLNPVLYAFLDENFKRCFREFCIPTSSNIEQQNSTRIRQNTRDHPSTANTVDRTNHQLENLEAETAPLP

[2] = target: T2, δ-opioid receptor (DOR), Human-ORPD1 (human, UniProt P41143 1-372)
T2 sequence (P41143 whole entry, stated change not applied): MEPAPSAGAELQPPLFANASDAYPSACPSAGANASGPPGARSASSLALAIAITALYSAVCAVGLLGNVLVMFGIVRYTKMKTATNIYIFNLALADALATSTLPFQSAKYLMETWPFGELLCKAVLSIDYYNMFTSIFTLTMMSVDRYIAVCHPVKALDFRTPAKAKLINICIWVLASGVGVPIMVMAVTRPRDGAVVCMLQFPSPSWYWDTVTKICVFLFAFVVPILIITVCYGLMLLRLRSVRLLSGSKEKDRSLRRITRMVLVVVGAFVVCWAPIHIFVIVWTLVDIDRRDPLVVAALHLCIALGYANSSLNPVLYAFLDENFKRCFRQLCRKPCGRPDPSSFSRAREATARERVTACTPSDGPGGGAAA

[3] = target: T1, µ-opioid receptor (MOR), Human-ORPM1; remark: listed apart in the source
[4] = target: T2, δ-opioid receptor (DOR), Human-ORPD1; remark: listed apart in the source
[5] = target: T1, µ-opioid receptor (MOR), Human-ORPM1; remark: listed apart in the source
[6] = target: T2, δ-opioid receptor (DOR), Human-ORPD1; remark: listed apart in the source
[7] = target: T1, µ-opioid receptor (MOR), Human-ORPM1; remark: listed apart in the source
[8] = target: T2, δ-opioid receptor (DOR), Human-ORPD1; remark: listed apart in the source

Binder	MOR EC50 [1]	DOR EC50 [2]	MOR EC50 [3]	DOR EC50 [4]	further results
B1	≤ 1 nM	≤ 1 nM	–	–	–
B2	–	–	≤ 10 nM	≤ 1 nM	–
B3	≤ 10 nM	≤ 10 nM	–	–	–
B4	–	–	≤ 10 nM	≤ 1 nM	–
B5	≤ 10 nM	≤ 10 nM	–	–	–
B6	≤ 10 nM	≤ 10 nM	–	–	–
B7	≤ 1 nM	≤ 1 nM	–	–	–
B8	–	–	≤ 1 nM	≤ 10 nM	–
B9	–	–	–	–	MOR cAMP (EC50 nM) [5]: ≤ 1 nM; DOR cAMP (EC50 nM) [6]: ≤ 1 nM; MOR EC50 [7]: ≤ 1 nM; DOR EC50 [8]: ≤ 1 nM
